Ends that are not written are not given here.
What was measured:
human activated Factor X = human activated Factor X (human, UniProt P00742 41-179; P00742 235-488); assay: cell-based or functional assay
[1] = target: T1, FX activation peptide 12-mer LLDFNQTQPERG (human); assay: peptide ELISA
T1 peptide: LLDFNQTQPERG-biotin
Protocol: (§1) The peptides were C-terminally conjugated to biotin and 50 μL of 1 μg/mL peptide solution was used for immobilization in discrete wells of the microtiter plate which was pre-coated with 1 μg/mL streptavidin. Each well was washed with washing buffer (10 mM Tris, 150 mM NaCl, 2.5 mM CaCl₂, 0.05% Tween 20, pH 8.60) followed by addition of 50 μL of 2 μg/mL FLAG-tagged anti-FX Nanobody® or IgG antibody to be tested. After 1 hour non-bound Nanobody®/antibody was washed off using washing buffer.
(§2) Bound anti-FX activation peptide ligand was detected by first binding a HRP-labelled secondary antibody (for FLAG-tagged Nanobodies: Anti-FLAG mAb M2-Peroxidase (HRP) (Sigma Aldrich, US), for antibody: Fcγ Fragment Specific Peroxidase AffiniPure F(ab′)₂ Fragment Goat Anti-Human IgG (Jackson ImmunoResearch Laboratories, Inc., US), or Peroxidase AffiniPure Goat Anti-Mouse IgG (Jackson ImmunoResearch Laboratories, Inc., US)) for 1 hour, and then adding 100 μL TMB-1 ELISA substrate (Kem-En-Tec Diagnostics, Denmark).

[2] = target: T2, FX activation peptide 12-mer FNQTQPERGDNN (human); assay: peptide ELISA
T2 peptide: FNQTQPERGDNN-biotin
Protocol: as §1, §2

[3] = target: T3, FX activation peptide 12-mer KPYDAADLDPTE (human); assay: peptide ELISA
T3 peptide: KPYDAADLDPTE-biotin
Protocol: as §1, §2

[4] = target: T4, FX activation peptide 12-mer TENPFDLLDFNQ (human); assay: peptide ELISA
T4 peptide: TENPFDLLDFNQ-biotin
Protocol: as §1, §2

[5] = target: T5, FX activation peptide 12-mer TQPERGDNNLTR (human); assay: peptide ELISA
T5 peptide: TQPERGDNNLTR-biotin
Protocol: as §1, §2

[6] = target: T6, FX activation peptide 12-mer FDLLDFNQTQPE (human); assay: peptide ELISA
T6 peptide: FDLLDFNQTQPE-biotin
Protocol: as §1, §2

[7] = target: T7, FX activation peptide 12-mer WKPYDAADLDPT (human); assay: peptide ELISA
T7 peptide: WKPYDAADLDPT-biotin
Protocol: as §1, §2

[8] = target: T8, FX activation peptide 12-mer SSGEAPDSITWK (human); assay: peptide ELISA
T8 peptide: SSGEAPDSITWK-biotin
Protocol: as §1, §2

[9] = target: T9, FX activation peptide 12-mer EAPDSITWKPYD (human); assay: peptide ELISA
T9 peptide: EAPDSITWKPYD-biotin
Protocol: as §1, §2

[10] = target: T10, FX activation peptide 12-mer AADLDPTENPFD (human); assay: peptide ELISA
T10 peptide: AADLDPTENPFD-biotin
Protocol: as §1, §2

[11] = target: T11, FX activation peptide 12-mer DSITWKPYDAAD (human); assay: peptide ELISA
T11 peptide: DSITWKPYDAAD-biotin
Protocol: as §1, §2

[12] = target: T12, FX activation peptide 12-mer DFNQTQPERGDN (human); assay: peptide ELISA
T12 peptide: DFNQTQPERGDN-biotin
Protocol: as §1, §2

[13] = target: T13, FX activation peptide 12-mer TWKPYDAADLDP (human); assay: peptide ELISA
T13 peptide: TWKPYDAADLDP-biotin
Protocol: as §1, §2

[14] = target: T14, FX activation peptide 12-mer PYDAADLDPTEN (human); assay: peptide ELISA
T14 peptide: PYDAADLDPTEN-biotin
Protocol: as §1, §2

[15] = target: T15, FX activation peptide 12-mer DLLDFNQTQPER (human); assay: peptide ELISA
T15 peptide: DLLDFNQTQPER-biotin
Protocol: as §1, §2

[16] = target: T16, FX activation peptide 12-mer DAADLDPTENPF (human); assay: peptide ELISA
T16 peptide: DAADLDPTENPF-biotin
Protocol: as §1, §2

[17] = target: T17, FX activation peptide 12-mer LDPTENPFDLLD (human); assay: peptide ELISA
T17 peptide: LDPTENPFDLLD-biotin
Protocol: as §1, §2

[18] = target: T18, FX activation peptide 12-mer PTENPFDLLDFN (human); assay: peptide ELISA
T18 peptide: PTENPFDLLDFN-biotin
Protocol: as §1, §2

[19] = target: T19, FX activation peptide 12-mer SITWKPYDAADL (human); assay: peptide ELISA
T19 peptide: SITWKPYDAADL-biotin
Protocol: as §1, §2

[20] = target: T20, FX activation peptide 12-mer SSSGEAPDSITW (human); assay: peptide ELISA
T20 peptide: SSSGEAPDSITW-biotin
Protocol: as §1, §2

[21] = target: T21, FX activation peptide 12-mer SGEAPDSITWKP (human); assay: peptide ELISA
T21 peptide: SGEAPDSITWKP-biotin
Protocol: as §1, §2

[22] = target: T22, FX activation peptide 12-mer PDSITWKPYDAA (human); assay: peptide ELISA
T22 peptide: PDSITWKPYDAA-biotin
Protocol: as §1, §2

[23] = target: T23, FX activation peptide 12-mer AQATSSSGEAPD (human); assay: peptide ELISA
T23 peptide: AQATSSSGEAPD-biotin
Protocol: as §1, §2

[24] = target: T24, FX activation peptide 12-mer YDAADLDPTENP (human); assay: peptide ELISA
T24 peptide: YDAADLDPTENP-biotin
Protocol: as §1, §2

[25] = target: T25, FX activation peptide 12-mer QATSSSGEAPDS (human); assay: peptide ELISA
T25 peptide: QATSSSGEAPDS-biotin
Protocol: as §1, §2

[26] = target: T26, FX activation peptide 12-mer PFDLLDFNQTQP (human); assay: peptide ELISA
T26 peptide: PFDLLDFNQTQP-biotin
Protocol: as §1, §2

[27] = target: T27, FX activation peptide 12-mer ENPFDLLDFNQT (human); assay: peptide ELISA
T27 peptide: ENPFDLLDFNQT-biotin
Protocol: as §1, §2

[28] = target: T28, FX activation peptide 12-mer ATSSSGEAPDSI (human); assay: peptide ELISA
T28 peptide: ATSSSGEAPDSI-biotin
Protocol: as §1, §2

[29] = target: T29, FX activation peptide 12-mer LDFNQTQPERGD (human); assay: peptide ELISA
T29 peptide: LDFNQTQPERGD-biotin
Protocol: as §1, §2

[30] = target: T30, FX activation peptide 12-mer APDSITWKPYDA (human); assay: peptide ELISA
T30 peptide: APDSITWKPYDA-biotin
Protocol: as §1, §2

[31] = target: T31, FX activation peptide 12-mer DLDPTENPFDLL (human); assay: peptide ELISA
T31 peptide: DLDPTENPFDLL-biotin
Protocol: as §1, §2

[32] = target: T32, FX activation peptide 12-mer TSSSGEAPDSIT (human); assay: peptide ELISA
T32 peptide: TSSSGEAPDSIT-biotin
Protocol: as §1, §2

[33] = target: T33, FX activation peptide 12-mer ITWKPYDAADLD (human); assay: peptide ELISA
T33 peptide: ITWKPYDAADLD-biotin
Protocol: as §1, §2

[34] = target: T34, FX activation peptide 12-mer NPFDLLDFNQTQ (human); assay: peptide ELISA
T34 peptide: NPFDLLDFNQTQ-biotin
Protocol: as §1, §2

[35] = target: T35, FX activation peptide 12-mer DPTENPFDLLDF (human); assay: peptide ELISA
T35 peptide: DPTENPFDLLDF-biotin
Protocol: as §1, §2

[36] = target: T36, FX activation peptide 12-mer QTQPERGDNNLT (human); assay: peptide ELISA
T36 peptide: QTQPERGDNNLT-biotin
Protocol: as §1, §2

[37] = target: T37, FX activation peptide 12-mer GEAPDSITWKPY (human); assay: peptide ELISA
T37 peptide: GEAPDSITWKPY-biotin
Protocol: as §1, §2

[38] = target: T38, FX activation peptide 12-mer ADLDPTENPFDL (human); assay: peptide ELISA
T38 peptide: ADLDPTENPFDL-biotin
Protocol: as §1, §2

[39] = target: T39, human plasma-derived Factor X zymogen (human, UniProt P00742 41-179; P00742 183-488); assay: apparent KD fitted from FXa generation assay
T39 construct: Plasma-derived, bought (Haematologic Technologies); also called FX; human FX
Protocol: The ability of the monovalent anti-FX Nanobody® (Nb) to promote FIXa-mediated FX-activation was determined in the presence of a procoagulant phospholipid membrane according to the principles described by Scheiflinger et al. (2008) J Thromb Haemost, 6:315-322. A Fab of mAb 13F62 (IgG1 isotype, variable sequences identified by SEQ ID NO:6 and 7), also found to bind the activation peptide, were included for comparison. Moreover, anti-FX antibodies as disclosed in U.S. Pat. No. 9,334,331 (J327 and L404-k in said publication), corresponding to the anti-FX arm of ACE910); and more recently in WO2018/021450 (J327 D31H and JYL280 in said publication) and WO2018/098363 (BIIB-12-917 represented by SEQ ID NO:427 and 615 in said publication) are stated to be suitable for use as part of anti-FIX/anti-FX bispecific FVIII mimetic compounds were, furthermore, included for comparison.
Each compound was tested individually in a concentration range from 0-1000 nM, 0-2000 nM, 0-4000 nM or 0-8000 nM by pre-incubation with 1-1.5 nM human plasma-derived FIXa (Haematologic Technologies Inc, USA) and 500 μM 25:75 phosphatidyl serine:phosphatidyl choline phospholipid vesicles (Haematologic Technologies Inc, USA) in assay buffer (50 mM HEPES, 100 mM NaCl, 5 mM CaCl₂, 0.1% (w/v) PEG8000, 1 mg/mL bovine serum albumin, pH 7.3) for 10 minutes. The reaction was initiated by addition of human plasma-derived FX (Haematologic Technologies Inc, USA) to a final concentration of 100 nM and a reaction volume of 50 μL. Following 20 minutes activation at room temperature while agitated (1000 RPM), the reaction was quenched by addition of 25 μL quench buffer (50 mM HEPES, 100 mM NaCl, 60 mM EDTA, 0.1% (w/v) PEG8000, 1 mg/mL bovine serum albumin, pH 7.3). The amount of FXa generated was determined by addition of 25 μL 2 mM S-2765 chromogenic substrate for FXa (Chromogenix, Sweden) and chromogenic substrate conversion was followed by measuring absorbance at 405 nm for 10 minutes in a microplate reader. The observed change in 405 nm absorbance (ΔAbs405/min) was fitted to the quadratic binding equation (eq. 1) to obtain the peak stimulatory activity and EC50.

[40] = target: T39, human plasma-derived Factor X zymogen; assay: cell-based or functional assay

T39 sequence (P00742 41-179, chain 1 of 2): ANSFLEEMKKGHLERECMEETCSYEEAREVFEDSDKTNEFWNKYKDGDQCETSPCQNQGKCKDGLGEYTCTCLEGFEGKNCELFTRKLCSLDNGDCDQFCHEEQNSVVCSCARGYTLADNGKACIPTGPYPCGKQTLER
T39 sequence (P00742 183-488, chain 2 of 2): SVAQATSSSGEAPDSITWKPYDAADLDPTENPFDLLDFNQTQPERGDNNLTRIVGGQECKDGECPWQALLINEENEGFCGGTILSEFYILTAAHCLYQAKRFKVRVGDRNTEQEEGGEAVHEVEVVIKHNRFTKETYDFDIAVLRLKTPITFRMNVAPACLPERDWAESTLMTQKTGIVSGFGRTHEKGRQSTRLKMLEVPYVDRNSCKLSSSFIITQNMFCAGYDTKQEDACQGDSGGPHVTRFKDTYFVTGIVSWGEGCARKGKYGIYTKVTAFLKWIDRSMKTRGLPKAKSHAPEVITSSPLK
human activated Factor X, sequence (P00742 41-179, chain 1 of 2): as the sequence (P00742 41-179, chain 1 of 2) above
human activated Factor X, sequence (P00742 235-488, chain 2 of 2): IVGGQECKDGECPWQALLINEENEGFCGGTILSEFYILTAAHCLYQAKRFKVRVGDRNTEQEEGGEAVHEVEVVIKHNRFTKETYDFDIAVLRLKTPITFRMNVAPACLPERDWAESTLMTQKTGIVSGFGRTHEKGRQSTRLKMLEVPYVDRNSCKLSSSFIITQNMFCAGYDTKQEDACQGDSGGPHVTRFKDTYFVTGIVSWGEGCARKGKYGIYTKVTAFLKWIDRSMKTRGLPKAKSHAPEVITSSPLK

B1: mAb 13F62 (antibody, V domains shown)
VH: EVQLVESGGGQVKPGGSLRLSCAASGFTFSTSSIYWVRQAPGKGLEWVSSISSGSSYIFYADSVKGRFTISRDNAKNSLFLQMNSLRAEDTAVYYCVSGYSRLLDYWGQGTLVTVSS
VL: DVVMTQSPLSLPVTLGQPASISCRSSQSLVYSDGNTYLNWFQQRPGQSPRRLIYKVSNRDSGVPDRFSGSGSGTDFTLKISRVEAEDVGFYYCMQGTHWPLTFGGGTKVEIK
notes: IgG1 isotype
FXa amidolytic activity (relative to free FXa, fold) (human activated Factor X): 0.94 fold | ELISA signal relative to background [1]: 0.86 | ELISA signal relative to background [2]: 1.77 | ELISA signal relative to background [3]: 0.77 | ELISA signal relative to background [4]: 29.7 | ELISA signal relative to background [5]: 8.86 | ELISA signal relative to background [6]: 30.6 | ELISA signal relative to background [7]: 1.18 | ELISA signal relative to background [8]: 0.73 | ELISA signal relative to background [9]: 1.64 | ELISA signal relative to background [10]: 0.77 | ELISA signal relative to background [11]: 3.61 | ELISA signal relative to background [12]: 1.23 | ELISA signal relative to background [13]: 1.95 | ELISA signal relative to background [14]: 0.84 | ELISA signal relative to background [15]: 0.82 | ELISA signal relative to background [16]: 0.77 | ELISA signal relative to background [17]: 31 | ELISA signal relative to background [18]: 30.1 | ELISA signal relative to background [19]: 7.95 | ELISA signal relative to background [20]: 0.77 | ELISA signal relative to background [21]: 0.82 | ELISA signal relative to background [22]: 1.89 | ELISA signal relative to background [23]: 1.89 | ELISA signal relative to background [24]: 0.84 | ELISA signal relative to background [25]: 1.82 | ELISA signal relative to background [26]: 29.7 | ELISA signal relative to background [27]: 28.7 | ELISA signal relative to background [28]: 3.2 | ELISA signal relative to background [29]: 0.8 | ELISA signal relative to background [30]: 1.59 | ELISA signal relative to background [31]: 26.4 | ELISA signal relative to background [32]: 0.68 | ELISA signal relative to background [33]: 4.23 | ELISA signal relative to background [34]: 28.6 | ELISA signal relative to background [35]: 29.8 | ELISA signal relative to background [36]: 1.95 | ELISA signal relative to background [37]: 1.5 | ELISA signal relative to background [38]: 1.25

B2: Nb 721E08 (VHH)
VHH: EVQLVESGGGVVQPGGSLRLSCAASGRTFSTYSMGWFRQAPGKEREFVAAITRRGSRTYYADSVKGRFTISRDNSKNTVYLQMNSLRPEDTALYYCAADRRPADSYLDYWGQGTLVTVSS
notes: monovalent Nanobody; not shown: C-terminal FLAG3 and HIS6 tag
Kd [39]: ~1.7 µM | FXa amidolytic activity (relative to free FXa, fold) (human activated Factor X): 1.07 fold | ELISA signal relative to background [3]: 1.89 | ELISA signal relative to background [5]: 1.97 | ELISA signal relative to background [7]: 1.83 | ELISA signal relative to background [10]: 2.22 | ELISA signal relative to background [20]: 1.99 | ELISA signal relative to background [23]: 1.92 | ELISA signal relative to background [25]: 1.97 | ELISA signal relative to background [29]: 2.21 | ELISA signal relative to background [36]: 1.96 | ELISA signal relative to background [38]: 2.34 | Increase in FX activation (fold) [40]: > 25 fold
